Results reported in IntAct's records for PubMed 21642537.

B1: Polycystin-2 (Homo sapiens), Q13563-1 (parent)
chain: MVNSSRVQPQQPGDAKRPPAPRAPDPGRLMAGCAAVGASLAAPGGLCEQRGLEIEMQRIRQAAARDPPAGAAASPSPPLSSCSRQAWSRDNPGFEAEEEEEEVEGEEGGMVVEMDVEWRPGSRRSAASSAVSSVGARSRGLGGYHGAGHPSGRRRRREDQGPPCPSPVGGGDPLHRHLPLEGQPPRVAWAERLVRGLRGLWGTRLMEESSTNREKYLKSVLRELVTYLLFLIVLCILTYGMMSSNVYYYTRMMSQLFLDTPVSKTEKTNFKTLSSMEDFWKFTEGSLLDGLYWKMQPSNQTEADNRSFIFYENLLLGVPRIRQLRVRNGSCSIPQDLRDEIKECYDVYSVSSEDRAPFGPRNGTAWIYTSEKDLNGSSHWGIIATYSGAGYYLDLSRTREETAAQVASLKKNVWLDRGTRATFIDFSVYNANINLFCVVRLLVEFPATGGVIPSWQFQPLKLIRYVTTFDFFLAACEIIFCFFIFYYVVEEILEIRIHKLHYFRSFWNCLDVVIVVLSVVAIGINIYRTSNVEVLLQFLEDQNTFPNFEHLAYWQIQFNNIAAVTVFFVWIKLFKFINFNRTMSQLSTTMSRCAKDLFGFAIMFFIIFLAYAQLAYLVFGTQVDDFSTFQECIFTQFRIILGDINFAEIEEANRVLGPIYFTTFVFFMFFILLNMFLAIINDTYSEVKSDLAQQKAEMELSDLIRKGYHKALVKLKLKKNTVDDISESLRQGGGKLNFDELRQDLKGKGHTDAEIEAIFTKYDQDGDQELTEHEHQQMRDDLEKEREDLDLDHSSLPRPMSSRSFPRSLDDSEEDDDEDSGHSSRRRGSISSGVSYEEFQVLVRRVDRMEHSIGSIVSKIDAVIVKLEIMERAKLKRREVLGRLLDGVAEDERLGRDSEIHREQMERLVREELERWESDDAASQISHGLGTPVGLNGQPRPRSSRPSSSQSTEGMEGAGGNGSSNVHV

Variants of: B1
Settings: with PKD1, P98161-3
PKD1, P98161-3, sequence (P98161 whole entry, looked up): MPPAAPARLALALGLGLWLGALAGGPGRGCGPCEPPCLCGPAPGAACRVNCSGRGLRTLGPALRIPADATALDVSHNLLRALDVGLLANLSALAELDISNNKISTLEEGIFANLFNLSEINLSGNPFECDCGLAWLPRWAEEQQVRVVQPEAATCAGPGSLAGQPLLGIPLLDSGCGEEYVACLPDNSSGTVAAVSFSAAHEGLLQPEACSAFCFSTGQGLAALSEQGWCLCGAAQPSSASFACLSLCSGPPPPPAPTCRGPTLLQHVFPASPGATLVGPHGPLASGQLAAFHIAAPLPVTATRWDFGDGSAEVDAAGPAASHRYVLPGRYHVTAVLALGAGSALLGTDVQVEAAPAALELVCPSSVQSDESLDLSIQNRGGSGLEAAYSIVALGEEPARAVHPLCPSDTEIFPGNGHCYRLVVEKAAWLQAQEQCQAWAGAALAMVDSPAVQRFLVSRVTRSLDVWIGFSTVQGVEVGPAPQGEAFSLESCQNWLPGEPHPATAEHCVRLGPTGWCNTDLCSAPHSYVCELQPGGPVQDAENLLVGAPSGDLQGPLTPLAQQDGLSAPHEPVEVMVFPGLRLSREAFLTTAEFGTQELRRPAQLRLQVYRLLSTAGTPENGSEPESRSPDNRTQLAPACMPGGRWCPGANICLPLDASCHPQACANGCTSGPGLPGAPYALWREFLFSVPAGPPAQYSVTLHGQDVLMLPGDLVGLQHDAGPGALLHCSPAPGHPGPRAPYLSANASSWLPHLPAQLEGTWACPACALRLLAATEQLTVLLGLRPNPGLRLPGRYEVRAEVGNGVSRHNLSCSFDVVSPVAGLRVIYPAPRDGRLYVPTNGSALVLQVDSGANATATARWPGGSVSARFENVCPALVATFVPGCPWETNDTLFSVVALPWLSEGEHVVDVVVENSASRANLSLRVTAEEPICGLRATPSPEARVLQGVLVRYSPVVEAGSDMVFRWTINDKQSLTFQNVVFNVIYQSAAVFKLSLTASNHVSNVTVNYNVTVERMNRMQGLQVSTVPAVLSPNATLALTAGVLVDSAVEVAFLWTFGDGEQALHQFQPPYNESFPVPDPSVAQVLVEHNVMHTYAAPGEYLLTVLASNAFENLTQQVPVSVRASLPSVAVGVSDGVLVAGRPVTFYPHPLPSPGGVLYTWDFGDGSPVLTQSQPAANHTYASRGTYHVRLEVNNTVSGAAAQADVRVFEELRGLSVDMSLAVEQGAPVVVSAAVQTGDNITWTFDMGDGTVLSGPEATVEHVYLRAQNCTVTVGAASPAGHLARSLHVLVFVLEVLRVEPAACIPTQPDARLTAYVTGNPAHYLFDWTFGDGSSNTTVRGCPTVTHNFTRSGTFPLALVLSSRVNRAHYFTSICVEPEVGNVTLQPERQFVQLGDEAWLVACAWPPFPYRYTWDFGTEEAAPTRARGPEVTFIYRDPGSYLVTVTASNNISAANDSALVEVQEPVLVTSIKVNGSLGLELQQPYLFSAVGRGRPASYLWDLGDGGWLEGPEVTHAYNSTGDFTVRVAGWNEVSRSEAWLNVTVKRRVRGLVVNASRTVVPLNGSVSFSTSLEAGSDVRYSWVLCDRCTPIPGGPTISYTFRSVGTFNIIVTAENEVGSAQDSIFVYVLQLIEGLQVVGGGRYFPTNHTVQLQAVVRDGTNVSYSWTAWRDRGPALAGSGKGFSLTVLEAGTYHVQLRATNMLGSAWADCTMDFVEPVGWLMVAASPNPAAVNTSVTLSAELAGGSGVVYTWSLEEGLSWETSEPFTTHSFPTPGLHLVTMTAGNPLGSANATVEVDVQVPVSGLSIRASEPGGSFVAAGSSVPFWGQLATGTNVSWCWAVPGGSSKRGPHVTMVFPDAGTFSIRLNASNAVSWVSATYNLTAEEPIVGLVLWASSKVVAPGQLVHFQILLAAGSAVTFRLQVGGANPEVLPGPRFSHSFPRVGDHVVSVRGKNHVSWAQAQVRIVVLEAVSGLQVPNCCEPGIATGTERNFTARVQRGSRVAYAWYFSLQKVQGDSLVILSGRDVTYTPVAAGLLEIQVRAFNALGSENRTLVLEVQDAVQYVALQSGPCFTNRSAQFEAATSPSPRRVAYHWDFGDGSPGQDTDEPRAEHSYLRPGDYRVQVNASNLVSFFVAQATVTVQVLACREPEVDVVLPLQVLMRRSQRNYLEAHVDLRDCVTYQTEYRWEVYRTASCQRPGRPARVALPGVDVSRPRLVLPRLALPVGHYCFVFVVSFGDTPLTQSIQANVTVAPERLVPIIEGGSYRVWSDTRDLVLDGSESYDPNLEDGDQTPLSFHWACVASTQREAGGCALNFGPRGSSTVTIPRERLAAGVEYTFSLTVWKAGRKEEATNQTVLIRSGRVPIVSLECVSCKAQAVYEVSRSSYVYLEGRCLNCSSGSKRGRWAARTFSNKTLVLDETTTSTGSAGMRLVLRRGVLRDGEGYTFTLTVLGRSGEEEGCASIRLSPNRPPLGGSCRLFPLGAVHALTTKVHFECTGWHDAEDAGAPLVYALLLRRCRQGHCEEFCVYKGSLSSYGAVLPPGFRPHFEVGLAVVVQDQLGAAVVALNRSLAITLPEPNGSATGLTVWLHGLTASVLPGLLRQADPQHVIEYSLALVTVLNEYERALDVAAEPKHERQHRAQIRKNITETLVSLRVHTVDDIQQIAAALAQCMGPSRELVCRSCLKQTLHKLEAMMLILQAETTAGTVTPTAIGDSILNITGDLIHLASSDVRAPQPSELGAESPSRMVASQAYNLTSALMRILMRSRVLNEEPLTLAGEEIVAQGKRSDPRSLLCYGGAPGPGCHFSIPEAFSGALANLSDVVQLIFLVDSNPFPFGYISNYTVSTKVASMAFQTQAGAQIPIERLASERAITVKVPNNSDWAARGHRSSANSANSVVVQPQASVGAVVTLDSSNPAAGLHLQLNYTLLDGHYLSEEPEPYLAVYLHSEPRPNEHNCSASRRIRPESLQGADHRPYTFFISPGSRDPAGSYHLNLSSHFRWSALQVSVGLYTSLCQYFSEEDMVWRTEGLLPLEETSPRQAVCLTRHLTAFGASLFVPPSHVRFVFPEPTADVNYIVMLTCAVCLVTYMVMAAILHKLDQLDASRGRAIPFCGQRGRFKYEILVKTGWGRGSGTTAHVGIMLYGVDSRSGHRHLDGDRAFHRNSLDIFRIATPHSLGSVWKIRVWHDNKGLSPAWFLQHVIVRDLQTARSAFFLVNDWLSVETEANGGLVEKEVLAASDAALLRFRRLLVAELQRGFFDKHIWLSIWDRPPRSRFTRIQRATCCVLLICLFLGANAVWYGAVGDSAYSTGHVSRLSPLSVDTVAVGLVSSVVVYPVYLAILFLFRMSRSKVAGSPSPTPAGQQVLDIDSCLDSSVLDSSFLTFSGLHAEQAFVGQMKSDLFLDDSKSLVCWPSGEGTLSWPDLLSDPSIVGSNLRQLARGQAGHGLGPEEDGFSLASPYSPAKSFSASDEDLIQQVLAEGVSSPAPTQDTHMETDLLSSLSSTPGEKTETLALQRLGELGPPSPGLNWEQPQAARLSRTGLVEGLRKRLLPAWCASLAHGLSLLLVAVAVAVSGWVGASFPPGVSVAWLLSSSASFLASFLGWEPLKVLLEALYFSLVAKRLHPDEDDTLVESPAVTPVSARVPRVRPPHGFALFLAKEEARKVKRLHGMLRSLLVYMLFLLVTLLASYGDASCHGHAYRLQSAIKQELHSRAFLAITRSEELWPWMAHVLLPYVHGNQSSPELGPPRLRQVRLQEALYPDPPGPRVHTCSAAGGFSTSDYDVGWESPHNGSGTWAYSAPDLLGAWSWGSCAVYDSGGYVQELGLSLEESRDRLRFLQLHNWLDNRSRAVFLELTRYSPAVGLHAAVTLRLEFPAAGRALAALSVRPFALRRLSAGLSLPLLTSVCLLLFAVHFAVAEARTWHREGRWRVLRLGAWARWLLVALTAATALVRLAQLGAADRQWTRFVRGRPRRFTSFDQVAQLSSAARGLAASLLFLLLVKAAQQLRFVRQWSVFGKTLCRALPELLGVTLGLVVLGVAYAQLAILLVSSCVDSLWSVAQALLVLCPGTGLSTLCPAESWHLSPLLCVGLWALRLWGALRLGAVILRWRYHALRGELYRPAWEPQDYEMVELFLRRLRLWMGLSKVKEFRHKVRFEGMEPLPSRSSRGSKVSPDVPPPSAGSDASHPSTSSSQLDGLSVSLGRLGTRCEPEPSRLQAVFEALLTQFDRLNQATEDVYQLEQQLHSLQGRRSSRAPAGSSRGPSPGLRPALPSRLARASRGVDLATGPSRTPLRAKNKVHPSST

| Variant | effect of a mutation on the interaction |
| --- | --- |
| V865A;I869A | decreasing interaction strength |
| K876A;R877A;R878A;E879A | decreasing interaction strength |
| K876G;R877G;R878G;E879G | decreasing interaction strength |
| D861A;I864A;V865A | decreasing interaction strength |
| K876A;R877A | decreasing interaction strength |

The remaining lines, values ahead:

| effect of a mutation on the interaction | Variant |
| --- | --- |
| decreasing interaction strength | V880A;L881A;L885A |
| decreasing interaction strength | L881D;L885D |
| disrupting interaction strength | R877G;R878G |
| decreasing interaction strength | R883A;L884A |
| decreasing interaction strength | R877A;R878A |
| disrupting interaction strength | L881A;L885A |

Variants of: B1
Settings: with pkd1_mouse Pkd1, O08852

| effect of a mutation on the interaction | Variant |
| --- | --- |
| decreasing interaction strength | V880A;L881A;L885A |
| decreasing interaction strength | L881A;L885A |
